Our source for the average FRET efficiency values is article PMC4118585.

The target in the experiment is HCMV glycoprotein M (gM, UL100) in HCMV-infected cells (HCMV strain AD169). The experiment in a line: FRET or BRET.
Sequence of HCMV glycoprotein M (gM, UL100) in HCMV-infected cells (HCMV strain AD169) (P16733 whole entry): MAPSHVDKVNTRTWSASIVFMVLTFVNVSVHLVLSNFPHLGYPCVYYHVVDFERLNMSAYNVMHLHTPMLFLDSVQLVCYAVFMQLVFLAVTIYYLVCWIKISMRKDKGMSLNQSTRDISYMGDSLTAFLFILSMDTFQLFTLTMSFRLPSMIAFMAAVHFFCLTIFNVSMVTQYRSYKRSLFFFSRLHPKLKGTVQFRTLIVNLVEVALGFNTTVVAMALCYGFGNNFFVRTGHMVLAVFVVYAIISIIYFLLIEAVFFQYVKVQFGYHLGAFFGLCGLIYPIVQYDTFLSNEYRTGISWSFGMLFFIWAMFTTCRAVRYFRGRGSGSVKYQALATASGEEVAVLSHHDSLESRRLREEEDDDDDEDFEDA

B1: myc-tagged FIP3 (FIP3-myc) (natural protein)
chain: MASAPPASPPGSEPPGPDPEPGGPDGPGAAQLAPGPAELRLGAPVGGPDPQSPGLDEPAPGAAADGGARWSAGPAPGLEGGPRDPGPSAPPPRSGPRGQLASPDAPGPGPRSEAPLPELDPLFSWTEEPEECGPASCPESAPFRLQGSSSSHRARGEVDVFSPFPAPTAGELALEQGPGSPPQPSDLSQTHPLPSEPVGSQEDGPRLRAVFDALDGDGDGFVRIEDFIQFATVYGAEQVKDLTKYLDPSGLGVISFEDFYQGITAIRNGDPDGQCYGGVASAQDEEPLACPDEFDDFVTYEANEVTDSAYMGSESTYSECETFTDEDTSTLVHPELQPEGDADSAGGSAVPSECLDAMEEPDHGALLLLPGRPHPHGQSVITVIGGEEHFEDYGEGSEAELSPETLCNGQLGCSDPAFLTPSPTKRLSSKKVARYLHQSGALTMEALEDPSPELMEGPEEDIADKVVFLERRVLELEKDTAATGEQHSRLRQENLQLVHRANALEEQLKEQELRACEMVLEETRRQKELLCKMEREKSIEIENLQTRLQQLDEENSELRSCTPCLKANIERLEEEKQKLLDEIESLTLRLSEEQENKRRMGDRLSHERHQFQRDKEATQELIEDLRKQLEHLQLLKLEAEQRRGRSSSMGLQEYHSRARESELEQEVRRLKQDNRNLKEQNEELNGQIITLSIQGAKSLFSTAFSESLAAEISSVSRDELMEAIQKQEEINFRLQDYIDRIIVAIMETNPSILEVK
B1: the average FRET efficiency is less than 2%.

B2: myc-tagged FIP4 (FIP4-myc), full length (natural protein)
chain: MAGGAGWSGAPAALLRSVRRLREVFEVCGRDPDGFLRVERVAALGLRFGQGEEVEKLVKYLDPNDLGRINFKDFCRGVFAMKGCEELLKDVLSVESAGTLPCAPEIPDCVEQGSEVTGPTFADGELIPREPGFFPEDEEEAMTLAPPEGPQELYTDSPMESTQSLEGSVGSPAEKDGGLGGLFLPEDKSLVHTPSMTTSDLSTHSTTSLISNEEQFEDYGEGDDVDCAPSSPCPDDETRTNVYSDLGSSVSSSAGQTPRKMRHVYNSELLDVYCSQCCKKINLLNDLEARLKNLKANSPNRKISSTAFGRQLMHSSNFSSSNGSTEDLFRDSIDSCDNDITEKVSFLEKKVTELENDSLTNGDLKSKLKQENTQLVHRVHELEEMVKDQETTAEQALEEEARRHREAYGKLEREKATEVELLNARVQQLEEENTELRTTVTRLKSQTEKLDEERQRMSDRLEDTSLRLKDEMDLYKRMMDKLRQNRLEFQKEREATQELIEDLRKELEHLQMYKLDCERPGRGRSASSGLGEFNARAREVELEHEVKRLKQENYKLRDQNDDLNGQILSLSLYEAKNLFAAQTKAQSLAAEIDTASRDELMEALKEQEEINFRLRQYMDKIILAILDHNPSILEIKH
Take B2: the average FRET efficiency worked out at 27%.
